Test results reported in PMC5485733, “An Amyloidogenic Sequence at the N-Terminus of the Androgen Receptor Impacts Polyglutamine Aggregation” (Biomolecules, 2017).

Target: the molecule itself
Test: SEC + other: mass spectrometry; HiLoad 16/60 Superdex 75, 20 mM sodium phosphate pH 6.5, 150 mM NaCl, with or without 2 mM DTT; dimer fraction decreased with DTT; fractions identified by mass spectrometry; monomer to covalent dimer

B1: His-SUMO-peptide fusion protein (SUMO_SAPKELCKAVSVSM) (domain or fragment, human)
chain: SAPKELCKAVSVSM
notes: three amino acids Ser-Ala-Pro linker inserted between the SUMO tag and the peptide; The peptide is the C-terminus of the chain (stop codon after it); The dimer is covalent; Printed mass 15,819 (printed as kDa); source: E. coli Rosetta (DE3), purified (Ni-NTA agarose, SEC); not shown: His, N-terminal, kept; SUMO, N-terminal, kept
stoichiometry N: 2
